Measured values from paper doi:10.1101/2025.09.26.678488, “Dishevelled drives Wnt-stimulated disassembly of primary cilia through a unique PDZ-mediated binding mode with Daple and Girdin” (bioRxiv, 2025).
Substitutions are numbered along the chain they refer to. No end group written: not given here. *: point of attachment. Lip = lipoyl, O=C(CCCC[C@@H]1CCSS1)*

Experiments:
[1] = target: T1, PDZ_(DVL2) V334E cleft mutant (NMR sample) (human, UniProt O14641 265-361, V334E); assay: NMR titration; 1H-15N fHSQC of 100 μM 15N-labelled PDZ_(DVL2) alone or with 150 μM (Daple, Girdin) or 300 μM (FZD4) Lip-tagged PBM peptide; 298 K; chemical shift perturbations and line broadening; conditions: both partners purified
T1 construct: DVL2 (Dishevelled-2), human, PDZ domain, amino acids 265-361, V334E; source: E. coli BL21-CodonPlus(DE3)-RIL, purified (Ni-NTA, SEC)
T1 sequence (looked up): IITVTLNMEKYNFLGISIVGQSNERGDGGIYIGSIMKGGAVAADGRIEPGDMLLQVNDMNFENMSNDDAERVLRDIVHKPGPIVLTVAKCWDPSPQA

Lip-PDZ_(DVL2) = target: T2, Lip-PDZ_(DVL2) (human, UniProt O14641 265-361); assay: ITC; 40 μM Lip-PDZ_(DVL2) in the cell, 1.00 mM Lip-PBM_(Daple) or 1.33 mM Lip-PBM_(FZD4) in the syringe; 25°C; 25 mM sodium phosphate pH 6.7, 150 mM NaCl; one set of binding sites; apparent KD; conditions: both partners purified
T2 construct: DVL2 (Dishevelled-2), human, PDZ domain, amino acids 265-361; also called His6x-Lip-PDZ; source: E. coli BL21-CodonPlus(DE3)-RIL, purified (Ni-NTA, SEC); not shown: Lipoyl (Lip), N-terminal, kept
T2 sequence (looked up): T1 sequence (looked up) with E70V

- binding result [1]: binds
- Kd (Lip-PDZ_(DVL2)): 9.1 µM
B1: Lip-PBM_(Daple) (C-terminal eight residues of Daple tagged with Lipoyl) (peptide, UniProt Q9P219 2021-2028, looked up)
peptide: Lip-VWYEYGCV
notes: Daple, C-terminal eight residues; the last residue is printed as Val2028, so 2021 is worked out; printed residues: Trp2022, Glu2024, Tyr2025, Gly2026, Cys2027, Val2028; source: E. coli BL21-CodonPlus(DE3)-RIL, purified (Ni-NTA, SEC); not shown: Lipoyl (Lip), N-terminal, kept
